Reference: the RNAGym collection of RNA variant scans (doi:10.7554/elife.90254)

B1: OR4K15 (parent)
chain: GUUAACGGUCAUAGGCCAUGGAAACUAGGAGCACCAUUUCGCUGCCAGUGAAGAAAUGAACAAAGAAAAUCUGGGCCAGGCAGGCAUCAAAAGAAAUAGUCUUGCGCUCAACCAGAAAGUCUGUAAUCAUUUUAAGGGUA

Variants of: B1
Test: self-cleavage, relative activity (ratio to wild type); higher = more cleavage; in vitro, sequencing; the parent is a self-cleaving ribozyme

First: U26A A47G
Second: U26A C105A
The self-cleavage of the first is higher: 0.94 for the first, 0.02 for the second.

Compared with U26A G115U, U26C U139A is higher in self-cleavage: 0.13 for the first, 1.49 for the second.

Compared with U26G A62G, U26A C81U is lower in self-cleavage: 1.02 for the first, 0.19 for the second.

Going from U26C U120C to C25U G136A, the self-cleavage rises from 0.85 to 1.84.

Going from A27G A82U to C25A U38C, the self-cleavage rises from 0.27 to 1.05.

First: C25G A27U
Second: U26C U122C
The self-cleavage of the first is higher: 1.45 for the first, 0.7 for the second.

Compared with A27G A68G, C25U A55G is higher in self-cleavage: 1.13 for the first, 1.72 for the second.

Compared with A27C U87A, U26C A110G is lower in self-cleavage: 1.13 for the first, 0.08 for the second.

Going from U26C A110C to U26C U130C, the self-cleavage rises from 0.25 to 0.3.

First: U26C A67G
Second: C25U A114G
The self-cleavage of the first is higher: 1.81 for the first, 0.37 for the second.

First: A24U U87A
Second: U26C A60G
The self-cleavage of the first is higher: 1.8 for the first, 1.61 for the second.

Compared with U26C A51U, U26C A51C is lower in self-cleavage: 1.69 for the first, 1.55 for the second.

Going from C25U U102A to C25U U132C, the self-cleavage rises from 0.79 to 1.36.

Compared with C25U A91U, A27G A69G is lower in self-cleavage: 1.13 for the first, 0.62 for the second.

First: U26G A52C
Second: A27G A47U
The self-cleavage of the first is lower: 0.7 for the first, 0.95 for the second.

Going from A27G A36G to U26C U131C, the self-cleavage falls from 1.26 to 1.04.

First: U26C A90G
Second: C25A U122C
The self-cleavage of the first is higher: 1.11 for the first, 0.72 for the second.

Going from A27G A66G to U26A U39A, the self-cleavage rises from 0.7 to 0.92.

First: C25U A110U
Second: U26A U100A
The self-cleavage of the first is lower: 0.57 for the first, 0.98 for the second.

First: A24U C128A
Second: U26C G44A
The self-cleavage of the first is higher: 1.85 for the first, 1.07 for the second.

Going from U26C A92G to U26C A68G, the self-cleavage falls from 1.45 to 1.26.

First: A27G A51G
Second: U26A U57G
The self-cleavage of the first is higher: 1.3 for the first, 0.97 for the second.

Going from U26C A55G to U26A U120G, the self-cleavage rises from 0.31 to 1.26.

Compared with A24U A78C, C25U A62G is higher in self-cleavage: 0.29 for the first, 0.59 for the second.

Compared with A27C A116U, U26C C77U is higher in self-cleavage: 0.23 for the first, 1.77 for the second.

First: C25U U87C
Second: C25G U108C
The self-cleavage of the first is higher: 1.11 for the first, 0.03 for the second.

Compared with U26A U72A, U26C C46U is higher in self-cleavage: 0.28 for the first, 0.81 for the second.

First: A24U A110G
Second: A24U A91G
The self-cleavage of the first is lower: 0.13 for the first, 1.09 for the second.

Going from C25U U72A to A27G A92G, the self-cleavage rises from 0.28 to 1.48.

First: A27G A67G
Second: C25U A89G
The self-cleavage of the first is lower: 1.25 for the first, 1.27 for the second.

Compared with U26A G44C, U26C A56G is higher in self-cleavage: 0.71 for the first, 1.43 for the second.

Compared with C25U A111G, A24U U57C is higher in self-cleavage: 0.09 for the first, 0.73 for the second.

First: A24U U43A
Second: U26A A129G
The self-cleavage of the first is higher: 1.68 for the first, 1.36 for the second.

Compared with A24U U26A, A24U U26C is higher in self-cleavage: 1.57 for the first, 2.46 for the second.

First: C25U U120A
Second: A24U G123A
The self-cleavage of the first is higher: 2.95 for the first, 1.3 for the second.

Going from U26C A69G to U26A A69G, the self-cleavage rises from 1.46 to 1.5.

Going from A27C G75C to A24U U132C, the self-cleavage rises from 0.12 to 2.18.

Going from U26C U132A to A27G A52C, the self-cleavage rises from 0.61 to 1.41.

First: C25U U57C
Second: A24U U100C
The self-cleavage of the first is lower: 1.42 for the first, 2.08 for the second.

First: A27G A63G
Second: A24U A82G
The self-cleavage of the first is higher: 1.49 for the first, 0.41 for the second.

Going from C25U A67G to U26A A91G, the self-cleavage falls from 1.55 to 1.38.

Going from U26C U103A to U26C U103C, the self-cleavage rises from 0.24 to 0.69.

First: U26A U132C
Second: U26C A118C
The self-cleavage of the first is higher: 0.9 for the first, 0.51 for the second.

Compared with C25U A135G, C25U A63G is lower in self-cleavage: 1.44 for the first, 0.37 for the second.

Going from A27G A54U to C25U A66C, the self-cleavage rises from 1.03 to 1.33.

Going from A27G A30G to U26A U130C, the self-cleavage falls from 0.69 to 0.54.

First: U26C A63G
Second: U26A A92G
The self-cleavage of the first is higher: 1.48 for the first, 0.89 for the second.

Going from U26C A30C to U26C A30U, the self-cleavage rises from 0.98 to 1.14.

First: U26C A89G
Second: C25A A36G
The self-cleavage of the first is higher: 1.35 for the first, 1.03 for the second.

Compared with C25U A47G, U26C A134G is lower in self-cleavage: 1.76 for the first, 1.05 for the second.

Going from U26C U100C to U26C A96G, the self-cleavage rises from 1.45 to 1.5.

First: A27G A33G
Second: A27G A33U
The self-cleavage of the first is lower: 0.96 for the first, 1.16 for the second.

Going from C25U A129G to U26C U102C, the self-cleavage rises from 1.37 to 1.65.

First: C25U A59G
Second: A27C A67U
The self-cleavage of the first is lower: 1.24 for the first, 1.29 for the second.

Compared with A24U A98G, A24U A116U is higher in self-cleavage: 0.45 for the first, 0.51 for the second.

Compared with A24U A118G, U26C A27G is lower in self-cleavage: 0.99 for the first, 0.75 for the second.

Compared with U26C A27U, U26C A82U is lower in self-cleavage: 1.2 for the first, 0.28 for the second.

First: A27G A86U
Second: A27G A86G
The self-cleavage of the first is lower: 1.34 for the first, 1.4 for the second.

Going from U26C A114U to U26A A59U, the self-cleavage rises from 0.07 to 1.22.

Compared with C25U U131C, U26G A63G is higher in self-cleavage: 1.57 for the first, 2.09 for the second.

First: C25G A59G
Second: U26C A59G
The self-cleavage of the first is lower: 0.57 for the first, 0.96 for the second.

Going from A24U A86G to U26A U43C, the self-cleavage falls from 1.8 to 1.45.

First: U26C U108C
Second: A24U U102C
The self-cleavage of the first is lower: 0.01 for the first, 1.26 for the second.

First: U26C A62U
Second: A24U A135U
The self-cleavage of the first is higher: 1.84 for the first, 0.83 for the second.

Going from A27G A90U to U26A C34U, the self-cleavage rises from 1 to 1.99.

Compared with U26A A114G, A27C A78G is higher in self-cleavage: 0.2 for the first, 0.21 for the second.

First: U26A A96G
Second: U26A A54G
The self-cleavage of the first is lower: 1.39 for the first, 1.95 for the second.

Compared with U26C U39A, U26G A96G is higher in self-cleavage: 1.13 for the first, 1.78 for the second.

Compared with C25U A54U, C25A A56G is higher in self-cleavage: 1.33 for the first, 1.41 for the second.

Going from C25U A86C to C25U C109U, the self-cleavage falls from 0.72 to 0.48.

First: U26C A126U
Second: U26A U102C
The self-cleavage of the first is lower: 1.29 for the first, 1.69 for the second.

Going from C25U U127C to U26C A116G, the self-cleavage rises from 0.57 to 1.14.

First: U26A A51G
Second: U26C G84A
The self-cleavage of the first is lower: 1.15 for the first, 1.84 for the second.

Going from C25G A30G to A27G A64G, the self-cleavage rises from 0.59 to 1.27.

First: A27G A78G
Second: U26C A86C
The self-cleavage of the first is lower: 0.3 for the first, 0.7 for the second.

Compared with U26C A86U, U26C A86G is lower in self-cleavage: 1.52 for the first, 1.33 for the second.

Compared with A27C A33U, U26C A140G is lower in self-cleavage: 2.06 for the first, 1.4 for the second.

Compared with C25G A118G, A27G A60G is higher in self-cleavage: 0.35 for the first, 1.09 for the second.

Going from A27C A69G to U26A A98G, the self-cleavage falls from 1.34 to 0.3.

First: A24U A90G
Second: C25U U70C
The self-cleavage of the first is higher: 1.63 for the first, 0.35 for the second.

Compared with U26C U43C, U26C A54G is higher in self-cleavage: 0.54 for the first, 1.61 for the second.

Compared with U26G A66G, U26C U87C is lower in self-cleavage: 1.09 for the first, 0.37 for the second.

Going from U26C A36G to U26C G136A, the self-cleavage rises from 1.47 to 2.02.

With U26A A27G the self-cleavage was 0.9.
